# Experiments:
# [1] = target: the molecule itself; assay: transmission electron microscopy; self-association into filaments
# citrate synthase = assay: cell-based or functional assay
binder,measurement,setting,value
"Methanococcus jannaschii gamma-Prefoldin (γ-PFD) (other, Recombinant protein expressed in E. coli from the genomic M. jannaschii gene; It forms long filaments of identical subunits; also called γ prefoldin; Mj-γ-PFD) MVNEVIDINEAVRAYIAQIEGLRAEIGRLDATIATLRQSLATLKSLKTLGEGKTVLVPVGSIAQVEMKVEKMDKVVVSVGQNISAELEYEEALKYIEDEIKKLLTFRLVLEQAIAELYAKIEDLIAEAQQTSEEEKAEEEENEEKAE",binding result,[1],binds
same,reduction of citrate synthase aggregation at 45° C.,citrate synthase,2 :1 monomer-to-monomer stoichiometric ratio
same,stabilization of citrate synthase against aggregation at 45° C.,citrate synthase,5 :1 monomer-to-monomer stoichiometric ratio

# Reference: US20110045554A1 (University of California, published 2011)
